# From article PMC12316734, “Lipase Activation by Poly(Methyl Methacrylate) in Dispersed Solution: Mechanistic Insights by Fluorescence Spectroscopy” (Applied Biochemistry and Biotechnology, 2025)
# B1: Thermomyces lanuginosus lipase (enzyme, UniProt O59952 23-291, looked up)
# chain: EVSQDLFNQFNLFAQYSAAAYCGKNNDAPAGTNITCTGNACPEVEKADATFLYSFEDSGVGDVTGFLALDNTNKLIVLSFRGSRSIENWIGNLNFDLKEINDICSGCRGHDGFTSSWRSVADTLRQKVEDAVREHPDYRVVFTGHSLGGALATVAGADLRGNGYDIDVFSYGAPRVGNRAFAEFLTVQTGGTLYRITHTNDIVPRLPPREFGYSHSSPEYWIKSGTLVPVTRNDIVKIEGIDATGGNNQPNIPDIPAHLWYFGLIGTCL
# modifications: Atto 488 coupled unspecifically to amines via NHS-ester (15 nM labelled protein, non-labelled enzyme added to 500 nM)
# notes: Thermomyces lanuginosus lipase (TLL), commercial enzyme preparation; The PDB entries were used only for computational surface analysis; also called TLL; Atto 488-TLL; source: gift from ASA Spezialenzyme GmbH (Wolfenbüttel, Germany), desalted (HiTrap Desalting) before use
# Target: the molecule itself
# Experiment: fluorescence correlation spectroscopy; 15 nM Atto 488-labelled TLL plus non-labelled TLL to 500 nM, no PMMA, broad-range buffer (succinic acid/NaH2PO4/glycine), pH 7 and pH 5; mean diffusion constant compared with the value predicted for the monomer (Hullrad)
protein,measurement,value
B1,stoichiometry N,2
